Patent publication US5935927A, “Compositions and methods for stimulating amyloid removal in amyloidogenic diseases using advanced glycosylation endproducts” (The Picower Institute For Medical Research, priority 1996, dated 1999)
Read-outs that look alike come from different tables or passages of the source.

Columns and labels:
[1] = system: insulin-producing β-cells of the adult pancreas; conditions: human cells; Lorenzo et al. 1994; cited from earlier work
[2] = system: insulin-producing β-cells of the adult pancreas; conditions: rat cells; Lorenzo et al. 1994; cited from earlier work
soluble βAP = target: T1, soluble βAP (Homo sapiens, UniProt P05067); assay: Thioflavin-T fluorescence assay of βAP aggregation and seeding; type: biochemical; conditions: for effect on fluorescent aggregate formation of βAP: 400 μM βAP 1-28, 0.1M sodium acetate pH 7.0, 100 mM glucose, 0.05M aminoguanidine, FIG. 4; for spontaneous formation of Thioflavin-T fluorescent aggregates: FIG. 1
T1 construct: Co-incubation of 400 μM βAP 1-28 in 0.1M sodium acetate, pH 7.0, with 100 mM glucose; purchased Bachem (Torrance, Calif.); host or cells: chemical synthesis
T1 sequence (P05067 672-699): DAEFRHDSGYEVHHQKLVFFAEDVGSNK
Description: Aggregation and Seeding Reactions. Synthetic, HPLC-purified peptides representing the first 28 (βAP 1-28) and the first 40 amino acids (βAP 1-40) of the 42 amino acid βAP were obtained from Bachem (Torrance, Calif.). Aggregation of soluble βAP 1-28 or βAP 1-40 at different concentrations was initiated by addition of 0.1M sodium acetate (NaOAc) at the indicated pH (between 4.7 and 7.5) and continued for the indicated times. Quantitative aggregate formation with sub-millimolar βAP concentrations was detected using the procedure of LeVine (1992, Protein Science 2:404-410). Briefly, fluorescence of aggregates added to 10 μM Thioflavin-T (Aldrich)/50 mM potassium phosphate buffer, pH 6.0, was measured upon excitation at 450±5 nm and detection of emission at 482±10 mn on a Perkin Elmer LS-50B spectrofluorimeter. Where indicated, small amounts of pre-formed aggregates or "nucleation seeds" were added to the soluble βAP and aggregation initiated with 0.1M sodium acetate.
Generations of "Seeds". […] After incubation, protein concentrations of seed preparations were measured and adjusted with buffer to 150 μM final concentration. […] Lysines at positions 16 and 28 of βAP contain primary amino groups which may react with reducing sugars to generate advanced glycosylation endproducts of AGEs. Indicated amounts of glucose and/or aminoguanidine, a potent inhibitor of advanced glycation and crosslink formation (Brownlee et al., 1986, Science 232:1629-1632), were also added to solutions of βAP before sodium acetate in some experiments.

Molecule: human amylin fibrils: fibrils of the 37 amino acid islet amyloid polypeptide (IAPP), amylin (KCNTATCATQRLANFLVHSSNNFGAILSSTNVGSNTY; Islet amyloid polypeptide fibrils; UniProt P10997 34-70, looked up)
- toxicity to β-cells [1]: toxic
- toxicity to β-cells [2]: toxic

Molecule: O=C[C@H](O)[C@@H](O)[C@H](O)[C@H](O)CO [glucose]
- effect on fluorescent aggregate formation of βAP (soluble βAP): stimulates fluorescent aggregate formation

Molecule: βAP 1-28: synthetic peptide representing the first 28 amino acids of the 42 amino acid βAP
- spontaneous formation of Thioflavin-T fluorescent aggregates (soluble βAP; 600 μM, pH 7.2): spontaneously and rapidly formed Thioflavin-T fluorescent aggregates within minutes
- spontaneous formation of Thioflavin-T fluorescent aggregates (soluble βAP; concentrations below 300 μM): aggregated very slowly with a considerable lag before fluorescent aggregates were measurable

Molecule: N=C(N)NN [aminoguanidine]
- effect on fluorescent aggregate formation of βAP (soluble βAP): can inhibit the AGE-enhanced aggregation of βAP
